Data on 32 molecules can be found in patent US20220073643A1 (NANJING GENSCRIPT BIOTECH, published 2022).

The EC50 is the midpoint of the concentration-response curve. A high value points to a less potent agent.

Changes are numbered by the printed parent chain.

To fix the notation:
B1: 194D3B2 (antibody, V domains shown)
VH: QAYLQQSGAELVRSGASVKMSCKASGYPFTSYNMHWVKQTPGQGLEWVGYIYPGNGGTNYNQKFRDKATLTADTSSSTAYMQISRLTSDDSAVYFCLTGRGFAYWGQGTLVTVSA
VL: DIVMTQSPSSLIVTPGERVTMSCKSSQSLLNSGNQKNYLTWYQQKPGQPPKLLIYRASTRESGVPDRFTGSGSGTDFTLTISSVQAEDLAVYYCQNDYSYPLTFGIGTKLELK
notes: mouse hybridoma mAb
B2: 232F1E4 (antibody, V domains shown)
VH: QVQLKESGPGLVAPSQSLSITCTVSGFALTTYGVSWVRQPPGKGLEWLGVIWGDGSTHYHSALISRLSIRKDNSKSQVFLKLNSLQTDDTATYYCAKPGRGNAMDYWGQGTSVTVSS
VL: B1 VL with T5S, I12T, P15A, R18K, P49S, R56W, V84M, S99I, I106A, K109M
notes: mouse hybridoma mAb
B3: 231C11E9 (antibody, V domains shown)
VH: EVMLVESGGGLVKPGGSLKLSCAASGFTFNNYVMCWVRQTPEKRLEWVATISSGNFYTYYPDSVKGRFTISRDNAKNTLYLQMSSLRSEDTAIYYCASLGRGNALDNWGQGTSVTVSS
VL: B1 VL with S9A, I12T, P15A, G16K, R18K, K24R, R56W, L102F, I106S, L112I
notes: mouse hybridoma mAb
B4: 185F2G12 (antibody, V domains shown)
VH: QAYLQQSGAELVRSGASVKMSCKASGYTFTSYNMHWVRQTPGQGLEWIGYIYPGNGGTNYSQKFKGKASLTADTSSTTAYMQISSLTSEDSAVYFCATGRGFAYWGQGTLVTVSA
VL: B1 VL with I12T, P15A, R18K, M21L, L30F, S32T, Y55F, S73F, Y98F, I106A
notes: mouse hybridoma mAb
B5: 234B9D4 (antibody, V domains shown)
VH: EIQLQQSGPDLMKPGSSVKISCTASGYSFTSYYIHWVKQSHGKTLEWIGYIDPFNGGTRYNQKFEGKAALTVDKSSTTAYMHLTSLTSDDSAVYYCASLRFFTYWGQGTLVTVSA
VL: B1 VL with I12T, P15A, R18K, S22T, K36E, Y55S, E61Q, I106A
notes: mouse hybridoma mAb
B6: 267B2C5 (antibody, V domains shown)
VH: B2 VH with S19A, A28S, L82V, A96G
VL: B1 VL with I12T, P15A, R18K, P49S, R56W, S99I, I106G, K109T
notes: mouse hybridoma mAb
B7: 196A12B10 (antibody, V domains shown)
VH: QIQWVQSGPELKKPRETVKISCKASGYTFTDYSMHWVKQAPGKGLKWMGWINSETGEATYADDFRGRFALSLETSATTAFLQINSLKNEDTGTYFCARFYYGNSFASWGQGTTLTVSS
VL: DIVMTQFPSSLTVTAGEKVTMTCKSSQSLLNGGNQKNYLTWYQQKPGLPPKLLIYWASTRESGVPDRFTGSGSGTEFTLTISSVQAEDLAVYYCQNNYYFPLTFGAGTKLELK
notes: mouse hybridoma mAb; also called 196Al2B10
B8: 259C6F7 (antibody, V domains shown)
VH: QAYLQQSGAELVRSGASVKMSCKASGYTFSSHNIHWVKQTPGQGLEWIGYIYPGNGDTNYNQKFKGKATLTADTSSSTAYMQISSLTSEDSAVYFCARDYYGNSFVYWGQGTLVTVSA
VL: DIVMIQSPSSLTEKAGEKVSMSCKSSQSLLNSGNQKNYLTWYQQKPGQPPKLLIYWASTRESGVPDRFTGSGSGTDFTLTISSVQAEDLAVYYCQNAYRFPFTFGAGTKLELK
notes: mouse hybridoma mAb
B9: 248G8E8 (antibody, V domains shown)
VH: B2 VH with A28S, H58N, A62T, S68R, R70S, N73K, P98A, M104L
VL: B1 VL with M4L, I12T, P15A, R18K, R56W, Y100F, I106A
notes: mouse hybridoma mAb
B10: 203A6C9 (antibody, V domains shown)
VH: QVQLKQSGPGLVQPSQSLSITCTVSGFSLTRYGVHWVRQSPGKGLEWLGVIWSGGNTDYNAAFISRLNIRKDNSKSQVFFKMNSLKPNDTAIYYCARAAYFGNSFDYWGQGTTLTVSS
VL: B1 VL with I12P, P15A, R18K, R56W, E61D, D97N, S99I, I106A
notes: mouse hybridoma mAb
B11: 248E6A7 (antibody, V domains shown)
VH: B8 VH with K23R, S30T, I34M, D57N, N59Y, G66V, S77N, S84N, A97V
VL: DVVMTQSPSSLTEKTGEKVTMTCKSSQSLLNSGNQKNYLAWYQQKPGQPPKLLIYWASTRESGVPDRFIGSGSGTDFTLTISSLQTEDLAVYYCQNNYMYPFTFGAGTKLELK
notes: mouse hybridoma mAb
B12: 219F9B8 (antibody, V domains shown)
VH: B4 VH with K19R, R38K, G57H, S61N, S69T, T77S
VL: B1 VL with I12T, P15A, R18K, I106V
notes: mouse hybridoma mAb
B13: 262C7C10 (antibody, V domains shown)
VH: B8 VH with S30T, S31N, H32Y, D57G, T58N, N59Y, S77I, V106A
VL: B7 VL with F7S, T22N, G32S, L48Q, E76D, V91I, N97D, F100Y
notes: mouse hybridoma mAb
B14: 194A2F7 (antibody, V domains shown)
VH: QIQLVQSGPELKKPGETVKISCKASGYTFTDYLIHWVKQAPGKGLKWMGWINTETGEPTYADDFKGRFALSLETSASTACLQINNLKNEDTATYFCARIYYGNSFDYWGQGTTLTVSS
VL: B8 VL with I5T, T12P, E13V, K14T, S20T, S22T, S28N, N37S, S62T, K109R
notes: mouse hybridoma mAb
B15: 241H10A1 (antibody, V domains shown)
VH: QVQLQQSGAELVKPGASVKLSCKASGYTFTSFGINWLRQRPEQGLEWIGWIFPGDGNSKYNENFKGKATLTTDKSSSTAYMQVTRLTSEDSAVYFCARFYYGNSFANWGQGTLVTVSA
VL: B1 VL with I12T, P15A, R18K, R56W, S58A, S99F, L102F, I106G
notes: mouse hybridoma mAb
B16: 186G12H3 (antibody, V domains shown)
VH: EVMLVESGGGLVKPGGSLKLSCAASRFTLSSYAMSWVRQTPEKRLEWVATISSGGSYTYYFDSVKGRFTISRDTAKNTLNLQMSSLRSEDTAMYYCARLYYGNALDYWGQGTSVTVSS
VL: B7 VL with F7S, M21V, T22S, G32S, L48Q, E76D, Y99I, F100Y, K109T
notes: mouse hybridoma mAb
B17: 203A6D5 (antibody, V domains shown)
VH: B10 VH
VL: B1 VL with I12P, P15A, R18K, R56W, E61D, D97N, S99I, I106A
notes: mouse hybridoma mAb
B18: 226A4B5 (antibody, V domains shown)
VH: QAYLQQSGAELVRSGASVRMSCKASGFTFTSYNIHWVKQTPGQGLEWIGYIYPGSGGSNYNQKFMGKATLTADTSSSTVYMQISSLTSEDSAVYFCATGRGFAYWGQGTLVTVSA
VL: B1 VL with I12T, P15A, R18K, L30F, I106T
notes: mouse hybridoma mAb
B19: 262H9H6 (antibody, V domains shown)
VH: B8 VH with S30T, I34M, Y52S, D57Y, K65R, A97T, V106T
VL: B8 VL with I5T, K18R, L30F, D76E, A97N, R99W
notes: mouse hybridoma mAb
B20: 198F10B8 (antibody, V domains shown)
VH: B1 VH with K19R, P28T, T30S, V48I, R65K, Y80F, M81I, R85S, D89E
VL: B1 VL with I12T, P15A, L30F, I106V
notes: mouse hybridoma mAb
B21: 267H5F12 (antibody, V domains shown)
VH: B8 VH with S30T, I34M, Y52S, D57Y, K65R, A97T, V106T
VL: B8 VL with I5T, K18R, L30F, D76E, A97N, R99W
notes: mouse hybridoma mAb
B22: 237D2A4 (antibody, V domains shown)
VH: B2 VH with A28S, T31S, H58N, A62T, S68R, R70S, N73K, P98A, M104L
VL: B1 VL with I12T, P15A, R18K, R56W, Y100F, I106A
notes: mouse hybridoma mAb
B23: 240A8E7 (antibody, V domains shown)
VH: B8 VH with S30T, S31N, H32Y, T58N, N59Y, V106A
VL: DVVMTQSPSSLTVTAGEKVTMNCKSSQSLLNSGNQKNYLTWYQQKPGQPPKMLIYWASTRESGVPDRFTGSGSGTDFTLTISSVQAEDLAIYYCQNDYYYPFTFGAGTKLELK
notes: mouse hybridoma mAb
B24: 268D7H9 (antibody, V domains shown)
VH: B8 VH with S30T, S31N, H32Y, D57G, T58N, N59Y, V106A
VL: B23 VL with V2I, V3A, M52L, F102L, K109T
notes: mouse hybridoma mAb
B25: 234A10F7 (antibody, V domains shown)
VH: B15 VH with V83L, N107Y
VL: B23 VL with V2I, A15T, E17Q, N22S, M52L, S58A, I91V, Y99F
notes: mouse hybridoma mAb
B26: 277F1F8 (antibody, V domains shown)
VH: B8 VH with A9P, S30T, I34M, Y52N, D57G, T58N, V106A, Y107F
VL: B8 VL with I5T, K14T, A97D
notes: mouse hybridoma mAb
B27: 240F8G2 (antibody, V domains shown)
VH: B8 VH with S30T, S31N, H32Y, D57G, T58N, N59Y, V106A
VL: B23 VL with V2I, M4V, M52L, F102L
notes: mouse hybridoma mAb
B28: 182D10F1 (antibody, V domains shown)
VH: B4 VH with T30S, R38K, S61N, S69T, T77S, A97L, A103T
VL: B1 VL with I12T, P15A, R18K, S22N, L30F, I106V
notes: mouse hybridoma mAb
B29: 213B10A4 (antibody, V domains shown)
VH: B4 VH with L4V, K23R, R38K, N59Y, S61N, S69T, T77S
VL: B1 VL with I12T, P15A, R18K, S73F, I106A
notes: mouse hybridoma mAb
B30: 260G9E8 (antibody, V domains shown)
VH: B8 VH with Y3D, S30A, I34M, D57G, N59K, K65T, S84T, V106A
VL: B8 VL with I5T, S22R, E87D, A97D, R99M
notes: mouse hybridoma mAb
B31: 266B11F7 (antibody, V domains shown)
VH: B2 VH with L4M, A28S, S35T, H58N, I64T, S68R, R70S, N73K, N83S, M104L
VL: B7 VL with F7S, T22R, G32S, L48Q, I54V, E76D, I81V, N97D, Y99I
notes: mouse hybridoma mAb
B32: 273C10E5 (antibody, V domains shown)
VH: B15 VH
VL: B23 VL with V2I, N22S, M52L, S58A, T69A, I91V, Y99F
notes: mouse hybridoma mAb

This assay addresses T1, human Claudin18.2 (human).
T1 construct: also called CLDN18.2
The assay can be described thus: cell ELISA, Claudin18.2-expressing HEK293T cells. The method, then: To determine protein binding EC₅₀ by Cell ELISA, 96-well U-bottom microplates were pre-blocked with blocking buffer (5% MPBS, 1×PBS with 5% skim milk) overnight at 4° C. On the next day, the Claudin18.2-expressing HEK293T stable cell line was suspended at 1.5×10⁶ cells/ml in blocking buffer, added to the plate in 100 μl/well and incubated at room temperature for 1 hour.
Raw data were plotted with GraphPad Prism v6.02 software with four parameters, best-fit value program to analyze the EC₅₀.
For B1, the response was half-maximal at 1.09 nM (EC50).

B2 had an EC50 of 0.966 nM.

Take B3: the EC50 stood at 1.91 nM. As for B4, the figure is 1.73 nM; as for B5, 4.78 nM; as for B6, 0.895 nM. As for B7, the figure is 1.78 nM. B8 returned an EC50 of around 0.443 nM. In turn, B9 registered an EC50 of 0.56 nM. B10 registered an EC50 of 0.916 nM.

As to B11, the midpoint of the response, the EC50, lay at 0.396 nM.

B12 had an EC50 of 1.16 nM. As for B13, the figure is 1.77 nM; as for B14, 2.57 nM; as for B15, 1.66 nM.

In turn, B16 registered an EC50 of 2.21 nM. To B17 belongs 1.16 nM; to B18, 1.59 nM; to B19, 0.879 nM. For B20, a half-maximal response (EC50) required 1.82 nM.

In turn, B21 returned an EC50 of around 0.513 nM. B22 registered an EC50 of 1.9 nM. As for B23, the figure is 0.646 nM; as for B24, around 0.411 nM. B25 gave an EC50 of 0.857 nM. To B26 belongs around 4410 nM; to B27, 0.88 nM; to B28, 1.65 nM. B29 came in with an EC50 of 2.33 nM. To B30 belongs 0.821 nM; to B31, around 0.397 nM. Molecule B32 returned an EC50 of 0.181 nM.
